Results: US20050191294A1 (University of Texas, published 2005)

Tests used:
[1] = biological target: T1, recombinant GRP78 (Stressgen); assay: phage binding to GRP78 immobilized on microtiter wells, 10^9 TU, bound TU counted
T1 construct: Bought protein; also called Glucose-regulated protein-78; immobilized GRP78
Method: In vitro phage binding assays. GRP78, HSP70, HSP90 (all from Stressgen, Victoria, Canada) and bovine serum albumin (BSA) were immobilized on microtiter wells of 96-well plates overnight at 4° C. Wells were washed twice with phosphate-buffered saline (PBS), blocked with PBS containing 3% BSA for 1 hour at room temperature (RT), and incubated with 10⁹ transducing units (TU) of […] (SEQ ID NO:6)-phage, […] (SEQ ID NO:7)-phage, or insertless control phage (Fd-tet) in 50 μl of PBS containing 1.5% BSA. After 2 hours at RT, wells were washed with PBS, and bound phage were recovered by infection with host bacteria (log-phase Escherichia coli K91 kan; OD₆₀₀≈2). Aliquots of the bacterial culture were plated onto Luria-Bertani broth (LB) agar plates supplemented with 40 μg/ml tetracycline and 100 μg/ml kanamycin. Plates were incubated overnight at 37° C., and phage TU were counted in triplicate plates. Increasing concentrations of synthetic peptides […] (SEQ ID NO:6), […] (SEQ ID NO:7)-, and an unrelated control peptide CARAC (SEQ ID NO:9) (Genemed Synthesis Inc., San Francisco, Calif.) were used to evaluate competitive inhibition of phage binding. All peptides were solubilized in a standard stock solution of 10% dimethylsulfoxide (DMSO) and diluted to working concentrations for the assays.
Peptide aptamers bind specifically to immobilized GRP78. […]

[2] = biological target: T2, GRP78 of human prostate cancer cells (DU145 cell surface; human prostate cancer bone metastasis sections) (human, UniProt P11021 19-654); assay: BRASIL aqueous-organic phase separation, phage on intact DU145 cells
T2 construct: whole, on cells; Endogenous protein; used for the intact-cell (BRASIL) assay and for tissue section overlays; also called GRP78 expressed on the membrane of the prostate cancer cells
T2 sequence (P11021 19-654): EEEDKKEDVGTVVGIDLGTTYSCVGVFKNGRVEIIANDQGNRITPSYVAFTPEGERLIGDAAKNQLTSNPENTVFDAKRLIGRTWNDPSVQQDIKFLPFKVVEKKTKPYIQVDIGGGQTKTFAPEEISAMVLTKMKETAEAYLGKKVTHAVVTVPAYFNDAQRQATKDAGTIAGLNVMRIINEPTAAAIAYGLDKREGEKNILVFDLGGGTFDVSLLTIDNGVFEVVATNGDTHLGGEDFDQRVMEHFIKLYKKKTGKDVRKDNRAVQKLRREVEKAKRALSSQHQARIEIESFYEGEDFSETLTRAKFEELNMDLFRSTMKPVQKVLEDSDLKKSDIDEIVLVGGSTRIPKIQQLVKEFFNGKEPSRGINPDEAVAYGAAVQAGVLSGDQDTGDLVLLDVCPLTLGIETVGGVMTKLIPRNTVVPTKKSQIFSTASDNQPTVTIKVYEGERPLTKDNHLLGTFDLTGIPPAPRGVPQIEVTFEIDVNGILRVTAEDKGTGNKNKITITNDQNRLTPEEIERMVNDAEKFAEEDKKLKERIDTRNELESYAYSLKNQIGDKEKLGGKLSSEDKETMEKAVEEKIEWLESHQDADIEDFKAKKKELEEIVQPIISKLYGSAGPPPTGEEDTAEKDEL
Method: Cell-binding assays. Biopanning and Rapid Analysis of Selective Interactive Ligands (BRASIL) method was used to evaluate phage binding to intact cells. In brief, cultured human prostate cancer-derived DU 145 cells were detached with ethylenediaminetetraacetate (EDTA) and resuspended in Dulbecco's modified Eagle's medium (DMEM) containing 1% BSA at 4×10⁶ cells per ml. The cell suspension (50 μl) was incubated with 10⁹ of […] (SEQ ID NO:6)—phage, […] (SEQ ID NO:7)—phage, or insertless Fd-tet phage (negative control) at 4° C. in constant slow rotation. After 2 hours, the phage/cell mixture (aqueous phase) was gently transferred to the top of a non-miscible organic phase (200 μl solution in a 400 μl Eppendorf tube) consisting of dibutyl phtalate:cyclohexane (9:1 [v:v]; d=1.03 g ml⁻¹) and centrifuiged at 10,000 g for 10 minutes at 4° C. The tube was then snap frozen in liquid nitrogen, the bottom of the tube was sliced off, and the cell-phage pellet was isolated. Cell membrane bound phage were recovered by infection with the host bacteria.
GRP78-binding phage clones bind specifically to prostate cancer cells. Having determined the binding specificity of aptamers to GRP78 in vitro, the binding of filamentous phage clones displaying […] […] (SEQ ID NO:7) (FIG. 5B) 580 to intact DU145 human prostate cancer cells by using an aqueous-organic phase separation was evaluated. […]

[3] = biological target: T3, IL-11Rα of human prostate cancer cells (LNCaP, MDA-PCa-2b) and human prostate cancer tissue sections (human, UniProt Q14626 23-422); assay: phage overlay on human prostate cancer tissue sections, compared with anti-IL-11Rα antibody staining
T3 construct: whole, on cells; Endogenous receptor; used both for cell assays and for tissue section overlays; also called IL-11 receptor alpha; interleukin-11 receptor alpha
T3 sequence (looked up): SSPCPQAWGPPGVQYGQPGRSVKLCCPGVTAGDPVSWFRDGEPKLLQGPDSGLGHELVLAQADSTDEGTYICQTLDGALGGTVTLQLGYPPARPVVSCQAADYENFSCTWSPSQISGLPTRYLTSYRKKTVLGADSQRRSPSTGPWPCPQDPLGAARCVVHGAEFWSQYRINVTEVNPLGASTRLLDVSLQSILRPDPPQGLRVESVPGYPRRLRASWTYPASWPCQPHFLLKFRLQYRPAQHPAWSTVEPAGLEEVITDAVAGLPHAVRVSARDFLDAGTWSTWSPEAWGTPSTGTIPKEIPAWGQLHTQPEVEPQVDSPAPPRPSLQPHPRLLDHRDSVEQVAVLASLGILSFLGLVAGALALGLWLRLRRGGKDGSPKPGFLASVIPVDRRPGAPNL

T1 sequence (P07823 19-654): as the sequence (P11021 19-654) above, with Y295F, A631S counted along it

B1: WIFPWIQL (SEQ ID NO:6)-phage (peptide)
peptide: WIFPWIQL
notes: whole phage particles stood in the assay; also called GRP78-targeting phage clone; not shown: pIII coat protein of fd-based phage (fUSE5 vector)
In the case of B1, the “fold binding over negative control phage (fd-tet)” value [1] is reported as 870 fold and the “fold binding over control phage (fd-tet)” value [2] is reported as 30 fold.

B2: CGRRAGGSC (SEQ ID NO:1)-displaying phage (peptide, not shown: large carriers)
peptide: CGRRAGGSC
notes: whole phage particles stood in the assay; also called IL-11-mimic phage; IL-11 mimic phage
B2: binds [3].

B3: WDLAWMFRLPVG (SEQ ID NO:7)-phage (peptide)
peptide: WDLAWMFRLPVG
notes: as for B1
B3 was tested, and the “fold binding over negative control phage (fd-tet)” value [1] was 260 fold and the “fold binding over control phage (fd-tet)” value [2] was 30 fold.
